Experimental data published in patent US9969998B2, “Compositions of adenosine deaminase-2 (ADA2), variants thereof and methods of using same” (Halozyme, Inc., priority 2014, dated 2018).
Like-named read-outs stand apart in the source and are kept apart here.

What was measured:
ADA2 = molecular target: T1, ADA2 (Homo sapiens, UniProt Q9NZK5); conditions: cited from earlier work
T1 sequence (Q9NZK5 30-511): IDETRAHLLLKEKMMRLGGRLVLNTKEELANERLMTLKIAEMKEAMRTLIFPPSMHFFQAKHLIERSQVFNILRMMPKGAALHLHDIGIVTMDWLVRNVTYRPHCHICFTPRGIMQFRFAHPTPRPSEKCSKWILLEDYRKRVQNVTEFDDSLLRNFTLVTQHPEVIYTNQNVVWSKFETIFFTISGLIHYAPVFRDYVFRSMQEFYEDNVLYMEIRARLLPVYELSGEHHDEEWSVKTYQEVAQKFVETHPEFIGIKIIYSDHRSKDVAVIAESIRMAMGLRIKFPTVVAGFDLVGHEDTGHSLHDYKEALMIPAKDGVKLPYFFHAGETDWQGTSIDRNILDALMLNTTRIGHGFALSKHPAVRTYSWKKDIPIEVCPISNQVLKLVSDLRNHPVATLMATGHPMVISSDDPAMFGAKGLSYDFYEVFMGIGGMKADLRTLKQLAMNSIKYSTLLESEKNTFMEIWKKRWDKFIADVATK

[1] = Adenosine deaminase (ADA) enzymatic activity assay kit; assay type: biochemical
[2] = Heparin binding capture ELISA (biotin-heparin on streptavidin plate); conditions: PEGylated and non-PEGylated forms (Table 22)
Method: Heparin binding of PEGylated rHuADA2 or variants was assessed by capture ELISA. Binding of rHuADA1 was assessed as a negative control. 100 μL of 0.2 mg/mL biotin-heparin (Sigma-Aldrich, St. Louis, Mo.; Cat No. B9806-10MG) was added to a streptavidin coated 96-well plate (Thermo Fisher Scientific, Rockford, Ill.; Cat. No. 15520), and incubated at room temperature for 1 hour. The plate was washed 6 times with PBS. Then, 150 μL of […] rHuADA2 was added to the heparin coated plate, titrated in 3× serial dilutions, and incubated at room temperature for 2 hours. The plate was then washed 6 times with PBS. A 1000× dilution of goat HRP-anti-FLAG pAb (Abcam, Cambridge, UK; Cat. No. Ab1238) was added to the ELISA plate and incubated at room temperature for 1 hour. The ELISA plate was then washed 6 times with phosphate buffered saline with Tween (PBST) and developed with the 3,3′,5,5′-Tetramethylbenzidine (TMB) substrate solution (Pierce, Thermo Fisher Scientific, Rockford, Ill.) according the manufacturer's instructions and reading the optical density at 450 nm (OD450) on a plate reader.

[3] = Thermal stability by differential scanning fluorimetry (DSF); assay type: physicochemical; conditions: 0.1-1 mg/mL protein
Method: The stability of the rHuADA2 WT and variants was measured by differential scanning fluorimetry (DSF) at increasing temperatures. DSF measures conformational stability, which correlates with thermal stability. The melting temperature (Tm) in DSF is defined as the midpoint of the protein unfolding transition.
Non-PEGylated WT rHuADA2, non-PEGylated rHuADA2 variants, and PEGylated forms of WT rHuADA2 and rHuADA2 variants were prepared at concentrations of 0.1-1 mg/mL and mixed with the ROX™ protein thermal shift dye (Applied Biosystems, Carlsbad, Calif.; Cat. No. 4461146) to a final dye concentration that corresponds to a 125-fold dilution of the stock ROX™ solution. Protein samples were then loaded into 96-well plate at a volume of 20 μL/well in triplicate. A ViiA7 RT-PCR System (Applied Biosystems, Carlsbad, Calif.) was used to measure the shift in fluorescence as the temperature of the samples were increased. The reactions were subjected to the following steps: incubation at 25° C. for 2 min; ramping of temperature from 25 to 99° C. at a rate of 0.05° C. per second; followed by a 99° C. incubation for 2 min. The wavelengths used for emission and excitation were 623 nanometers (nm) and 580 nm, respectively.

[4] = mouse, in vivo, iv, 7.5 mg/kg
Source text: Fifty four (54) male BALB/c mice were divided into six (6) dosing groups, and were further divided into three (3) groups each for sampling of blood at different time points. Thus, the mice were randomized into eighteen (18) groups total. Mice were weighed prior to the start of the study, and randomized into the 18 groups based upon their body weights. In each sampling group, three groups of (3) mice were used for dosing each test article to prevent oversampling of the blood from the animals. For measurement of baseline ADA2 levels, a blood sample was obtained from 12 randomly chosen mice and plasma was prepared using the anti-coagulant potassium (K3) ethylene diamine tetraacetic acid (K3-EDTA). All blood was collected by submandibular venipuncture.
Each mouse was injected by intravenous tail-vein injection with a 7.5 mg/kg dose of one of six ADA2 test article as set forth in Table 24, i.e. rHuADA2-K374D (K371D by mature numbering), PEG-rHuADA2-K374D (PEG-K371D by mature numbering), rHuADA2-R23E (R20E by mature numbering), PEG-rHuADA2-R23E (PEG-R20E by mature numbering), or WT ADA2 and PEG-WT ADA2.
Blood was collected at designated sampling time points from appropriate groups of mice as indicated below in Table 24 and kept on ice until plasma preparation. Plasma was prepared by centrifuging the blood (500×g for 5 min at 4° C.), transferring the plasma to a fresh tube and immediately freezing at −80° C. until the adenosine deaminase activity assay. Adenosine deaminase activity was determined as described in Example 4. The half-life, or time taken for the activity of ADA2 proteins to be reduced by half, was calculated. Also, total exposure was measured by calculating the Area Under the Concentration-time Curve (AUC).

[5] = Heparin binding ELISA (heparin coated microtiter plate); conditions: for Average OD450, heparin binding ELISA: 3 μM protein
Method: A 96-well plate was coated with 100 μL of 200 μg/mL heparin sodium salt (Calibochem, EMD Milipore, Billerica, Mass.; Cat. No. 375095) in Na2CO3 buffer (pH 9.6), overnight at 4° C. The wells were blocked with 5% milk in PBS, and washed 6 times with PBS. 3 μM of select rHuADA2 variants (see Table 20), WT rHuADA2 (positive control) and WT rHuADA1 (negative control) were added to the wells individually and incubated for 2 hours at room temperature, followed by washing 6 times with PBS. 100 μL of 1:1000 diluted horseradish peroxidase (HRP)-anti-FLAG antibody (Abcam, Cambridge, UK; Cat. No. Ab1238) was added to the wells to detect binding and incubated at room temperature for 1 hour. The ELISA reactions were developed by adding the 3,3′,5,5′-Tetramethylbenzidine (TMB) substrate solution (Pierce, Thermo Fisher Scientific, Rockford, Ill.) according the manufacturer's instructions and reading the optical density at 450 nm (OD450) on a plate reader.

[6] = 37° C.; for Plasma incubated mean adenosine deaminase activity: 0.17 mg/ml in 25% BALB/c mouse plasma; for PBS incubated mean adenosine deaminase activity: 0.17 mg/ml in PBS 0.2% BSA
[7] = Stability of ADA activity in plasma; assay type: in vitro ADME, mouse; conditions: long incubation (e.g., 24 hours) in plasma
Method: For therapeutic uses, such as for treatment of tumors or cancers, it is desirable to administer to the subject a dosage of ADA2 that will maintain plasma adenosine deaminase (ADA) activity for a sufficient time for therapeutic effect. […] The plasma stability of any ADA2 described herein, such as a wildtype, variant or conjugate, can be determined by measuring the changes in enzymatic activity and/or other physical properties, before and after incubation in plasma, e.g., ex vivo mammalian plasma.
Stability can be assessed in vitro or in vivo. For example, stability can be tested after exposure to plasma for a desired length of time, which can be empirically determined or selected by a skilled artisan depending on the desired length of time. For example, the incubation time can be at least 1 hour, such as at least 2, 3, 4, 5, 10, 15, 20, 24, 30, 36, 48, 60, 72 hours or more. The protein can be directly administered systemically, such as intravenously, and activity can be assessed. In other examples, the protein can be subject to appropriate incubation conditions in vitro. In one example, the stability of ADA activity of any ADA2 provided herein can be measured after incubation at 37° C., in 25% ex vivo plasma or serum, such as human or non-human plasma or serum, for example, mouse plasma. […]

[8] = cited from earlier work
[9] = adenosine deaminase activity, cited from earlier work

Molecule: OC[C@H]1O[C@@H](n2cnc3c2N=CNC[C@H]3O)C[C@@H]1O [2′-deoxycoformycin]
- inhibition of ADA2 (ADA2): potent inhibitors

B1: PEG-WT ADA2: WT rHuADA2 PEGylated with linear PEG-20K (conjugate, UniProt Q9NZK5 30-511, looked up)
Adenosine deaminase 2: T1 sequence (Q9NZK5 30-511)
modifications: linear PEG-20K
notes: WT rHuADA2 PEGylated with linear PEG-20K
- adenosine deaminase activity mU/mL ([1]; PEGylated and non-PEGylated forms (Table 23)): 124.2 mU/mL
- % of WT adenosine deaminase activity ([1]; Table 23): 102.2%
- Average OD450, heparin binding capture ELISA [2]: 0.75
- Tm, melting temperature by DSF [3]: 68.81 °C
- AUC (mU * h)/mL [4]: 1,444,000 (mU * h)/mL
- Half life slow (t1/2) [4]: 13.6 h
- Percent increase in AUC compared to WT ADA2 [4]: 4291%
- Percent increase in t1/2 compared to WT ADA2 [4]: 1078%

B2: WT ADA1: recombinant human adenosine deaminase 1 with Strep-tag, mature SEQ ID NO:66/67 (protein, listed as Homo sapiens)
chain 1: AQTPAFDKPKVELHVHLDGSIKPETILYYGRRRGIALPANTAEGLLNVIGMDKPLTLPDFLAKFDYYMPAIAGCREAIKRIAYEFVEMKAKEGVVYVEVRYSPHLLANSKVEPIPWNQAEGDLTPDEVVALVGQGLQEGERDFGVKARSILCCMRHQPNWSPKVVELCKKYQQQTVVAIDLAGDETIPGSSLLPGHVQAYQEAVKSGIHRTVHAGEVGSAEVVKEAVDILKTERLGHGYHTLEDQALYNRLRQENMHFEICPWSSYLTGAWKPDTEHAVIRLKNDQANYSLNTDDPLIFKSTLDTDYQMTKRDMGFTEEEFKRLNINAAKSSFLPEDEKRELLDLLYKAYGMPPSASAGQNL
chain 2: AQTPAFDKPKVELHVHLDGSIKPETILYYGRRRGIALPANTAEGLLNVIGMDKPLTLPDFLAKFDYYMPAIAGCREAIKRIAYEFVEMKAKEGVVYVEVRYSPHLLANSKVEPIPWNQAEGDLTPDEVVALVGQGLQEGERDFGVKARSILCCMRHQPNWSPKVVELCKKYQQQTVVAIDLAGDETIPGSSLLPGHVQAYQEAVKSGIHRTVHAGEVGSAEVVKEAVDILKTERLGHGYHTLEDQALYNRLRQENMHFEICPWSSYLTGAWKPDTEHAVIRLKNDQANYSLNTDDPLIFKSTLDTDYQMTKRDMGFTEEEFKRLNINAAKSSFLPEDEKRELLDLLYKAYGMPPSASAGQNLSGSGSWSHPQFEK
modifications: Strep-tag; mature ADA1 protein; mature ADA1-linker-Strep
- Average OD450, heparin binding ELISA ([5]; Set 1): 0.07
- Average OD450, heparin binding ELISA ([5]; Set 2): 0.06
- Heparin Binding ELISA Average OD450 ([5]; single and S265N combination variants (Table 34)): −0.02
- Average OD450, heparin binding capture ELISA [2]: <0.02
- Plasma incubated mean adenosine deaminase activity ([6]; 0 hr): 71,663.6 mU/mL
- PBS incubated mean adenosine deaminase activity ([6]; 0 hr): 61,077.0 mU/mL
- Plasma incubated mean adenosine deaminase activity ([6]; 4 hr): 46,772.1 mU/mL
- PBS incubated mean adenosine deaminase activity ([6]; 4 hr): 59,544.8 mU/mL
- activity retained in PBS/BSA control ([6]; 24 hours): greater than 80%
- activity retained after treatment with plasma ([6]; 24 hours, mouse plasma): less than 1%
- Plasma incubated mean adenosine deaminase activity ([6]; 24 hr): 673.6 mU/mL
- PBS incubated mean adenosine deaminase activity ([6]; 24 hr): 50,287.9 mU/mL

B3: ADA1: human adenosine deaminase 1, monomer, SEQ ID NO:12 (protein, listed as Homo sapiens)
chain: MAQTPAFDKPKVELHVHLDGSIKPETILYYGRRRGIALPANTAEGLLNVIGMDKPLTLPDFLAKFDYYMPAIAGCREAIKRIAYEFVEMKAKEGVVYVEVRYSPHLLANSKVEPIPWNQAEGDLTPDEVVALVGQGLQEGERDFGVKARSILCCMRHQPNWSPKVVELCKKYQQQTVVAIDLAGDETIPGSSLLPGHVQAYQEAVKSGIHRTVHAGEVGSAEVVKEAVDILKTERLGHGYHTLEDQALYNRLRQENMHFEICPWSSYLTGAWKPDTEHAVIRLKNDQANYSLNTDDPLIFKSTLDTDYQMTKRDMGFTEEEFKRLNINAAKSSFLPEDEKRELLDLLYKAYGMPPSASAGQNL
modifications: ADA1 protein; ref <300>: PUBLICATION INFORMATION:; ref <308>: DATABASE ACCESSION NUMBER: NCBI NP_000013.2; ref <309>: DATABASE ENTRY DATE: 2014-05-03
- stability in plasma [7]: substantially less stable
- Km ([8]; for adenosine, wild-type enzyme in humans, read-out: Km): ~52 µM
- Km ([8]; read-out: Km for adenosine): ~100 µM
- pH optimum [9]: ~7.5
- pH optimum ([9]; listed as ADA′): 7.5
